The values that follow come from the supplement of paper PMC10567573.

The chains are these.
B1: TRIM63 (parent)
chain: FRCPTCRHEVIMDRHGVYGLQRNL
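Also: lentivirally expressed fusions sorted by FACS into six bins by GFP to DsRed ratio, PSI derived from sequencing read proportions per bin multiplied by bin number.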

The data set covers variants of B1. The experiment in a line: protein stability index of a GFP-peptide fusion (GPS, HEK-293T) (PSI 1-6); higher = more stable. The settings on record: c terminus: a fixed tail appended.
Turning to FRCPTCRHEVIMDRHGVYGLQRNS [L24S], the protein stability index was found to be 2.47.

As to FRCPTCRHEVIMDRHGVYGLQRNT [L24T], the protein stability index was 2.98.

For the variant FRCPTCRHEVIMDRHGVYGLQRNW [L24W], the protein stability index amounted to 2.4.

For FRCPTCRHEVIMDRHGVYGLQRNV [L24V], the protein stability index is 2.12.

For FRCPTCRHEVIMDRHGVYGLQRNC [L24C], the protein stability index was 2.75.

Regarding FRCPTCRHEVIMDRHGVYGLQRNH [L24H], the protein stability index came out at 2.88.

With FRCPTCRHEVIMDRHGVYGLQRNQ [L24Q], the protein stability index came to 2.26.

Take FRCPTCRHEVIMDRHGVYGLQRNP [L24P]: the protein stability index turned out to be 2.98.

With FRCPTCRHEVIMDRHGVYGLQRNK [L24K], the protein stability index came to 1.89.

On to FRCPTCRHEVIMDRHGVYGLQRNG [L24G], for which the protein stability index amounted to 2.99.

As for FRCPTCRHEVIMDRHGVYGLQRNY [L24Y], the protein stability index stood at 2.7.

As for FRCPTCRHEVIMDRHGVYGLQRNE [L24E], the protein stability index amounted to 2.46.

Take FRCPTCRHEVIMDRHGVYGLQRNN [L24N]: the protein stability index amounted to 1.85.

For FRCPTCRHEVIMDRHGVYGLQRNR [L24R], the protein stability index turned out to be 1.7.

In the case of FRCPTCRHEVIMDRHGVYGLQINL [R22I], the protein stability index was 3.38.

FRCPTCRHEVIMDRHGVYGLQENL [R22E]: the protein stability index worked out at 3.83.

In the case of FRCPTCRHEVIMDRHGVYGLQWNL [R22W], the protein stability index came to 2.43.

Consider FRCPTCRHEVIMDRHGVYGLQANL [R22A], for which the protein stability index was 2.29.

For FRCPTCRHEVIMDRHGVYGLQCNL [R22C], the protein stability index stood at 2.29.

With FRCPTCRHEVIMDRHGVYGLQNNL [R22N], the protein stability index amounted to 2.95.

FRCPTCRHEVIMDRHGVYGLQLNL [R22L]: the protein stability index is 1.34.

As for FRCPTCRHEVIMDRHGVYGLQDNL [R22D], the protein stability index stood at 3.21.

For the variant FRCPTCRHEVIMDRHGVYGLQVNL [R22V], the protein stability index came to 2.43.

Turning to FRCPTCRHEVIMDRHGVYGLQHNL [R22H], the protein stability index turned out to be 2.17.

On to FRCPTCRHEVIMDRHGVYGLQPNL [R22P], for which the protein stability index came out at 2.49.

In the case of FRCPTCRHEVIMDRHGVYGLQQNL [R22Q], the protein stability index stood at 2.24.

With FRCPTCRHEVIMDRHGVYGLQSNL [R22S], the protein stability index turned out to be 2.35.

As for FRCPTCRHEVIMDRHGVYGLQTNL [R22T], the protein stability index was determined as 2.08.

Turning to FRCPTCRHEVIMDRHGVYGLQMNL [R22M], the protein stability index stood at 1.45.

Regarding FRCPTCRHEVIMDRHGVYGLQGNL [R22G], the protein stability index came to 1.98.

On to FRCPTCRHEVIMDRHGVYGLQYNL [R22Y], for which the protein stability index worked out at 1.75.

Regarding FRCPTCRHEVIMDRHGVYGLQFNL [R22F], the protein stability index was 1.84.

For FRCPTCRHEVIMDRHGVYGLQKNL [R22K], the protein stability index turned out to be 2.02.

FRCPTCRHEVIMDRHGVYGLWRNL [Q21W]: the protein stability index came out at 2.31.

Turning to FRCPTCRHEVIMDRHGVYGLRRNL [Q21R], the protein stability index was found to be 1.98.

As to FRCPTCRHEVIMDRHGVYGLYRNL [Q21Y], the protein stability index was 2.17.

As for FRCPTCRHEVIMDRHGVYGLSRNL [Q21S], the protein stability index was 1.55.

Regarding FRCPTCRHEVIMDRHGVYGLGRNL [Q21G], the protein stability index came out at 2.42.

Consider FRCPTCRHEVIMDRHGVYGLHRNL [Q21H], for which the protein stability index is 1.86.

In the case of FRCPTCRHEVIMDRHGVYGLARNL [Q21A], the protein stability index is 1.66.

For the variant FRCPTCRHEVIMDRHGVYGLIRNL [Q21I], the protein stability index stood at 1.74.

With FRCPTCRHEVIMDRHGVYGLLRNL [Q21L], the protein stability index was found to be 3.19.

FRCPTCRHEVIMDRHGVYGLVRNL [Q21V]: the protein stability index was determined as 1.59.

For the variant FRCPTCRHEVIMDRHGVYGLERNL [Q21E], the protein stability index was determined as 2.73.

Regarding FRCPTCRHEVIMDRHGVYGLMRNL [Q21M], the protein stability index stood at 1.63.

In the case of FRCPTCRHEVIMDRHGVYGLDRNL [Q21D], the protein stability index turned out to be 2.1.

Regarding FRCPTCRHEVIMDRHGVYGLNRNL [Q21N], the protein stability index is 2.87.

FRCPTCRHEVIMDRHGVYGLFRNL [Q21F]: the protein stability index worked out at 1.27.

In the case of FRCPTCRHEVIMDRHGVYGLPRNL [Q21P], the protein stability index is 1.96.

In the case of FRCPTCRHEVIMDRHGVYGLCRNL [Q21C], the protein stability index turned out to be 2.63.

On to FRCPTCRHEVIMDRHGVYGLKRNL [Q21K], for which the protein stability index was found to be 2.02.

As for FRCPTCRHEVIMDRHGVYHLQRNL [G19H], the protein stability index was determined as 2.51.

Consider FRCPTCRHEVIMDRHGVYNLQRNL [G19N], for which the protein stability index worked out at 2.21.

Consider FRCPTCRHEVIMDRHGVYCLQRNL [G19C], for which the protein stability index is 2.57.

For the variant FRCPTCRHEVIMDRHGVYMLQRNL [G19M], the protein stability index was 1.98.

Turning to FRCPTCRHEVIMDRHGVYRLQRNL [G19R], the protein stability index worked out at 2.31.

As for FRCPTCRHEVIMDRHGVYILQRNL [G19I], the protein stability index was 1.92.

In the case of FRCPTCRHEVIMDRHGVYPLQRNL [G19P], the protein stability index stood at 2.25.

Regarding FRCPTCRHEVIMDRHGVYWLQRNL [G19W], the protein stability index came out at 3.11.

FRCPTCRHEVIMDRHGVYLLQRNL [G19L]: the protein stability index turned out to be 1.47.

Take FRCPTCRHEVIMDRHGVYTLQRNL [G19T]: the protein stability index was found to be 2.8.

FRCPTCRHEVIMDRHGVYALQRNL [G19A]: the protein stability index is 2.7.

With FRCPTCRHEVIMDRHGVYVLQRNL [G19V], the protein stability index was found to be 2.14.

With FRCPTCRHEVIMDRHGVYDLQRNL [G19D], the protein stability index amounted to 1.67.

For the variant FRCPTCRHEVIMDRHGVYELQRNL [G19E], the protein stability index stood at 1.86.

In the case of FRCPTCRHEVIMDRHGVYFLQRNL [G19F], the protein stability index came to 2.28.

For the variant FRCPTCRHEVIMDRHGVYKLQRNL [G19K], the protein stability index came out at 2.07.

Take FRCPTCRHEVIMDRHGVYYLQRNL [G19Y]: the protein stability index was 2.92.

For FRCPTCRHEVIMDRHGVYSLQRNL [G19S], the protein stability index came out at 2.21.

On to FRCPTCRHEVIMDRHGVYQLQRNL [G19Q], for which the protein stability index was 2.46.

Take FRCPTCRHEVIMDRHGVWGLQRNL [Y18W]: the protein stability index came to 1.94.

As for FRCPTCRHEVIMDRHGVRGLQRNL [Y18R], the protein stability index worked out at 2.08.

Take FRCPTCRHEVIMDRHGVSGLQRNL [Y18S]: the protein stability index came out at 2.62.

For FRCPTCRHEVIMDRHGVVGLQRNL [Y18V], the protein stability index is 1.67.

Turning to FRCPTCRHEVIMDRHGVTGLQRNL [Y18T], the protein stability index was 2.69.

Take FRCPTCRHEVIMDRHGVYGNQRNL [L20N]: the protein stability index came to 2.05.

Take FRCPTCRHEVIMDRHGVYGMQRNL [L20M]: the protein stability index came out at 1.81.

As for FRCPTCRHEVIMDRHGVYGAQRNL [L20A], the protein stability index worked out at 1.77.

For the variant FRCPTCRHEVIMDRHGVYGPQRNL [L20P], the protein stability index worked out at 1.77.

Take FRCPTCRHEVIMDRHGVYGVQRNL [L20V]: the protein stability index was found to be 2.71.

With FRCPTCRHEVIMDRHGVYGYQRNL [L20Y], the protein stability index turned out to be 1.99.

For FRCPTCRHEVIMDRHGVYGEQRNL [L20E], the protein stability index worked out at 2.27.

As for FRCPTCRHEVIMDRHGVYGTQRNL [L20T], the protein stability index was 2.81.

In the case of FRCPTCRHEVIMDRHGVYGHQRNL [L20H], the protein stability index came out at 2.75.

For FRCPTCRHEVIMDRHGVYGFQRNL [L20F], the protein stability index came to 2.02.

Turning to FRCPTCRHEVIMDRHGVYGGQRNL [L20G], the protein stability index was 1.66.

As to FRCPTCRHEVIMDRHGVYGWQRNL [L20W], the protein stability index turned out to be 2.25.

For the variant FRCPTCRHEVIMDRHGVYGRQRNL [L20R], the protein stability index was determined as 1.08.

FRCPTCRHEVIMDRHGVYGQQRNL [L20Q]: the protein stability index stood at 2.07.

Take FRCPTCRHEVIMDRHGVYGSQRNL [L20S]: the protein stability index was 2.11.

Consider FRCPTCRHEVIMDRHGVYGKQRNL [L20K], for which the protein stability index is 1.51.

As for FRCPTCRHEVIMDRHGVYGCQRNL [L20C], the protein stability index worked out at 2.39.

Take FRCPTCRHEVIMDRHGVYGIQRNL [L20I]: the protein stability index turned out to be 1.6.

Consider FRCPTCRHEVIMDRHGVYGDQRNL [L20D], for which the protein stability index is 2.42.
